# Test results published in patent US20090110680A1, “Combination of an anti ED-B fibronectin domain antibody and gemcitabine” (priority 2006, published 2009).
# B1: ^131I-L19-SIP (conjugate, chains of the INN, looked up)
# VH: EVQLLESGGGLVQPGGSLRLSCAASGFTFSSFSMSWVRQAPGKGLEWVSSISGSSGTTYYADSVKGRFTISRDNSKNTLYLQMNSLRAEDTAVYYCAKPFPYFDYWGQGTLVTVSS
# VL: EIVLTQSPGTLSLSPGERATLSCRASQSVSSSFLAWYQQKPGQAPRLLIYYASSRATGIPDRFSGSGSGTDFTLTISRLEPEDFAVYYCQQTGRIPPTFGQGTKVEIK
# modifications: small immunoprotein iodine-131 label
# Experiments:
# [1] = target: T1, ED-B domain of fibronectin (Homo sapiens, UniProt P02751); details: cited from earlier work
# T1 construct: The ED-B, a small domain of 91 amino acids
# [2] = test system: Capan-1, human pancreas adenocarcinoma xenografts; experiment: Radiotherapy / combination therapy study in mice bearing human pancreatic tumour xenografts; type: in vivo; details: for survival versus untreated control animals: control (36 days)
# Protocol: ED-B-fibronectin domain expression in mouse pancreatic tumour models as well in human pancreatic cancer tissue, pancreatitis and normal pancreas was investigated by immunohistochemical analysis. SPECT (=single photon emission computed tomography) imaging was performed in an orthotopic pancreas cancer mouse model (DAN-G human pancreas carcinoma, DMSZ No. ACC249) with the ^99mTc labelled ED-B-fibronectin domain targeting scFv antibody fragment AP39, described in WO 03/055917. In addition MRI imaging was performed. In radiotherapy studies, mice bearing human pancreatic tumour xenografts (Capan-1, human pancreas adenocarcinoma, ATTC-No. HTB-79) were treated with a single dose of either 37 MBq or 74 MBq of ^131I-labelled ED-B-fibronectin domain targeting L19-SIP (=fusion protein). For combination therapy Capan-1 tumour bearing mice received two cycles of gemcitabine (1 g/m^2/week for three weeks with a one-week break), followed by a single dose of 37 MBq ^131I-L19-SIP 24 h after the first injection of gemcitabine. In a first experiment Capan-1 tumour bearing mice received either a single dose of 37 MBq of ^131I labelled ED-B-fibronectin domain targeting L19-SIP, or two cycles of gemcitabine (1 g/m^2/week for three weeks with a one-week break) as stand alone therapies. For combination therapy mice received two cycles of gemcitabine together with a single dose of 37 MBq ^131I-L19-SIP 24 h after the first injection of gemcitabine. In a second experiment Capan-1 tumour bearing mice were treated with a single dose of either 37 MBq or 74 MBq of ^131I labelled ED-B-fibronectin domain targeting L19-SIP (=fusion protein). For combination therapy Capan-1 tumour bearing mice received two cycles of gemcitabine (1 g/m^2/week for three weeks with a one-week break), together with a single dose of 37 MBq 1311-L19-SIP 24 h after the first injection of gemcitabine.
# T1 sequence (P02751 1271-1359 limits assumed): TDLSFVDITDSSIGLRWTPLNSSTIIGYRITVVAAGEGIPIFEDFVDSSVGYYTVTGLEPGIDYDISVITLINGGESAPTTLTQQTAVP
molecule,measurement,setting,value
scFv(L19): human single chain Fv antibody fragment specific for the ED-B domain of fibronectin,binding affinity for ED-B,[1],picomolar
"Nc1ccn([C@@H]2O[C@H](CO)[C@@H](O)C2(F)F)c(=O)n1 [gemcitabine, 2′-deoxy-2′,2′-difluorocytidine]",survival versus untreated control animals,"[2]; gemcitabine alone, two cycles (1 g/m^2/week for three weeks, one-week break), Capan-1 tumour bearing mice",did not differ from untreated control animals
B1,survival versus untreated control animals,"[2]; 37 MBq ^131I-L19-SIP alone, Capan-1 tumour bearing mice",did not differ from untreated control animals
same,tumour growth inhibition compared to untreated control tumours,"[2]; 37 MBq ^131I-L19-SIP, single dose",did not result in tumour growth inhibition
same,median survival,"[2]; single dose of 74 MBq ^131I-L19-SIP alone, Capan-1 tumour bearing mice, untreated control 32 days",44 days
